These results are taken from US20150104459A1.

The target of experiment [1] is M2 protein of influenza A/Hong Kong/483/97 (H5N1) (influenza A virus A/Hong Kong/483/97 (H5N1)).
The target of experiment [2] is recombinant soluble homotrimeric HA of A/Solomon Islands/3/06 (H1N1) (Influenza A virus A/Solomon Islands/3/2006 (H1N1)). Briefly: HA microarray, BCC supernatant. As to conditions: remark: other sources report otherwise.
The target of experiment [3] is recombinant soluble homotrimeric HA of A/California/4/09 (H1N1) (Influenza A virus A/California/04/2009 (H1N1)). Briefly: HA microarray, BCC supernatant. The conditions noted are these: remark: other sources report otherwise.
Experiment [4] deals with recombinant soluble homotrimeric HA of A/Japan/305/57 (H2N2) (Influenza A virus A/Japan/305/1957 (H2N2)). Kind of experiment: HA microarray, BCC supernatant. As to conditions: remark: other sources report otherwise.
Experiment [5] has as its target recombinant soluble homotrimeric HA of A/chicken/Vietnam/NCVD-016/08 (H5N1) (Influenza A virus A/chicken/Vietnam/NCVD-016/2008 (H5N1)). Kind of experiment: HA microarray, BCC supernatant. As to conditions: remark: other sources report otherwise.
Experiment [6] addresses recombinant soluble homotrimeric HA, A/duck/Yangzhou/02/2005 (H8N4) (influenza A virus A/duck/Yangzhou/02/2005 (H8N4)). Kind of experiment: microarray, trimeric HA, transfection supernatant. The conditions noted are these: remark: other sources report otherwise.
Experiment [7] concerns the target recombinant soluble homotrimeric HA, A/chicken/Vietnam/NCVD-016/08 (H5N1) (influenza A virus A/chicken/Vietnam/NCVD-016/2008 (H5N1)). Kind of experiment: microarray, trimeric HA, transfection supernatant. The conditions noted are these: remark: other sources report otherwise.
Experiment [8] has as its target recombinant soluble homotrimeric HA of A/Wisconsin/67/05 (H3N2) (Influenza A virus A/Wisconsin/67/2005 (H3N2)). Kind of experiment: HA microarray, BCC supernatant. As to conditions: remark: other sources report otherwise.
For experiment [9], the target named is recombinant soluble homotrimeric HA, A/northern shoveler/California/HKWF115/2007 (H6N1) (influenza A virus A/northern shoveler/California/HKWF115/2007 (H6N1)). Briefly: microarray, trimeric HA, transfection supernatant. As to conditions: remark: other sources report otherwise.

Changes are numbered by the printed parent chain.
Wherever FACS M2-HK MFI is given: test concentration or dose not given here.

B1: 3244_I10 (antibody, V domains shown)
VH: QVQLQESGPGLLKPSDTLALTCTVSGGSITSDYWSWIRQPPGRGLDWIGFFYNGGSTKYNPSLKSRVTISADTSKNQLSLKLTSVTAADTGVYYCARHDAKFSGSYYVASWGQGTRVTVSS
VL: DIQMTQSPSSLSASVGDRVTISCRASQSISTYLNWYQQQPGKAPKVLIFGATNLQSGVPSRFSGSGSGTDFTLTISSLQPEDFATYYCQQSYNTPLIFGQGTKLEIK
B1 gave an FACS M2-HK MFI in [1] of 434 MFI.

B2: 3243_J07 (antibody, V domains shown)
VH: B1 VH with A100V
VL: B1 VL with F49S
For B2, the FACS M2-HK MFI in experiment [1] was 131 MFI.

B3: 3253_P10 (antibody, V domains shown)
VH: B1 VH
VL: B1 VL with F49S, N53D
In [1], B3 showed an FACS M2-HK MFI of 43 MFI.

B4: 3245_O19 (antibody, V domains shown)
VH: EVQLVESGGGLVQPGGSLRLSCTASGLSVSSTYMNWVRQAPGKGLEWVSVFYSETRTYYADSVKGRFTVSRHNSNNTLYLQMNSLRVEDTAVYYCARVQRLSYGMDVWGQGTTVTVSS
VL: DIQMTQSPSSLSASVGDRVTITCRASQSISTYLNWYQKRPGKAPKLLVYGASTLQSGVPSRFSGSGSGTDFTLTIASLQPEDSATYYCQQTYSIPLFGQGTRLEIK
Consider B4, for which, in experiment [1], the FACS M2-HK MFI turned out to be 919 MFI.

B5: 3244_H04 (antibody, V domains shown)
VH: B4 VH with V87A
VL: B4 VL with T53S, T85V
The molecule B5 displayed an FACS M2-HK MFI in [1] of 963 MFI.

B6: TCN-544 (5082_A19) (antibody, V domains shown)
VH: QVQLQESGPGLVKPSETLSLTCTVSRGSIGHYFWSWIRQPPGKGLEWIGYISYSGSTKYNPSLRSRVTISVDTSKNQFSLNLNSVTATDTALYYCAREDYDILTGAGPGMEVWGQGTTVTVSS
VL: QSMLTQPPSASGTPGQRVTISCSGSSSNIGSNTVNWFKHLPGTAPKLLIYRNDLRPSGVPDRFSGSKSGTSASLAISGLQSEDEADYYCATWDDSLNGFYVFGTGTKVTVL
In the case of B6, the Trimeric HA Binding RLU in experiment [2] is 179 RLU; in experiment [3] it was 281 RLU; in experiment [4], 187 RLU; in experiment [5], 272 RLU; in [6], 9440 RLU; in experiment [7], 3070 RLU.

B7: 3136_G05 (antibody, V domains shown)
VH: QVQLQESGPGLVKPSETLSLTCSVSGGSISSDFWSWIRQPPGKGLEWIGYVYNRGSTKYSPSLKSRVTISADMSKNQFSLNMSSVTAADTAVYYCAKNGRSSTSWGIDVWGKGTTVTVSS
VL: DIQMTQSPSSLSASVGDRLTITCRASQSISTYLHWYQQKPGKAPKLLIYAASSLQSGVPSRFSGSRSGTDFTLTISSLQPDDFATYYCQQSYSPPLTFGPGTKVDMK
In [1], B7 yielded an FACS M2-HK MFI of 109 MFI.

B8: 3260_D19 (antibody, V domains shown)
VH: DMQLVESGGGLVPPGGSLRLSCAASGFSVSDNYINWVRQAPGKGLDWVSVFYSADRTSYADSVKGRFTVSSHDSKNTVYLQMNSLRAEDTAVYYCARVQKSYYGMDVWGQGTTVTVSS
VL: GIQMTQSPSSLSASVGDRVTITCRASQSISRYLNWYLQKPGKAPKLLISGASSLQSGVPSRFSGTGSGTEFTLTISSLQPEDFATYYCQQTFSIPLFGQGTKVEIK
Consider B8, for which the FACS M2-HK MFI in experiment [1] was found to be 846 MFI.

B9: 3242_P05 (antibody, V domains shown)
VH: B8 VH
VL: B8 VL
Turning to B9, in experiment [1], the FACS M2-HK MFI was 596 MFI.

B10: 3252_C13 (antibody, V domains shown)
VH: QVQLQESGPGLVKPSETLSLTCTVSGASISSDYWSWIRLPPGKGLEWIGYIYNRGSTKYTPSLKSRVTISLDTAENQFSLRLRSVTAADTAIYYCARHVGGHTYGIDYWGQGTLVTVSS
VL: DIQMTQSPSSLSASVGDRVTITCRASQSISNYLNWYQHKPGEAPKLLNYAASSLQSGVPSRFSASGSGTDFTLTISSLQPEDFATYYCQQSYNTPITFGQGTRLEIK
Regarding B10, the FACS M2-HK MFI in experiment [1] is 449 MFI.

B11: 3420_I23 (antibody, V domains shown)
VH: QVQLQESGPGLVKPSETLSVTCKVSGDSISSYSWSWIRQPPGKGLEWVGYLYYSGSTKYNPSLKSRTTISVDTSTNQLSLKLSFVTAADTAVYFCARTGSESTTGYGMDVWGQGTTVTVSS
VL: B10 VL with N31T, H38Q, E42K, N48I, Q55H, A64G, T72A, N93S, T94P
With B11, the FACS M2-HK MFI in [1] worked out at 112 MFI.

B12: 3362_B11 (antibody, V domains shown)
VH: QVQLQASGPGLVKPSETLSLTCTVSGDSITSGAYYWTWIRQHPGKGLEWIGYIYYSGNTYYNPSLKSRVTISLDTSKNQFSLKVNSVTAADTAVYYCARAASTSVLGYGMDVWGQGTTVTVSS
VL: B10 VL with N31R, H38Q, K39E, E42K, N48V, A64G, N93S, I96L
As for B12, the FACS M2-HK MFI in experiment [1] came to 218 MFI.

B13: 3255_J06 (antibody, V domains shown)
VH: B10 VH with I92V
VL: B10 VL with T74S, S77G, Q100P
B13 gave an FACS M2-HK MFI in experiment [1] of 442 MFI.

B14: 3139_P23 (antibody, V domains shown)
VH: QVQLQESGPRLVKPSESLSLTCTVSGGSISNSFWGWIRQPPGEGLEWIGYVYNSGNTKYNPSLKSRVTISRDTSKSQLYMKLRSVTAADTAVYYCARHDDASHGYSISWGHGTLVTVSS
VL: DIQMTQSPSSLSASVGDRVTITCRASQTISTYLNWYQQKSGKAPKLLIYAASGLQSGVPSRFSGSGSGTDFTLTISSLQPEDFATYFCQQSYNTPLTFGQGTKVEIK
Take B14: the FACS M2-HK MFI in [1] came out at 110 MFI.

B15: 3248_P18 (antibody, V domains shown)
VH: QVQLQESGPGLVKPSETLSLTCTVSGGSISAYHWSWIRQPPGKGLEWIGHIFDSGSTYYNPSLKSRVTISLDASKNQLSLRLTSVTASDTAIYYCARPLGSRYYYGMDVWGQGTTVTVSS
VL: DIQMTQSPSSLSASVGDRVTITCRASQSISRYLNWYQQKPGKAPKLLIYGASTLQNGAPSRFSGSGSGTDFTLTISSLQPEDSATYLCQQSYSVPAFGGGTKVEVK
For B15, the FACS M2-HK MFI in experiment [1] amounted to 967 MFI.

B16: 3241_G23 (antibody, V domains shown)
VH: QVQLQQSGPGLVKPSQTLSLTCTVSGGPVSGGGYSWNWIRQRPGQGLEWVGFMFHSGSPRYNPTLKSRITISVDTSKNLVSLKLSSVTAADTAVYFCARVGQMDKYYAMDVWGQGTTVTVSS
VL: DIQMTQSPSSLSSSVGDRVTITCRASQSIGAYVNWYQQKAGKAPQVLIFGASNLQSGVPSRFSGSGSGTDFTLTISSLQPEDFATYFCQQTYSTPITFGQGTRLEIK
B16 showed an FACS M2-HK MFI in [1] of 1700 MFI.

B17: 3259_J21 (antibody, V domains shown)
VH: QVQLQESGPRVVRPSETLSLTCTVSGGSISSYNWIWIRQPPGKGLEWIGHIYDYGRTFYNSSLQSRPTISVDASKNQLSLRLTSVTASDTAVYYCARPLGILHYYAMDLWGQGTTVTVSS
VL: DIQMTQSPLSVSVSVGDRVTIACRASQSIDKFLNWYQQKPGKAPKLLIYGASNLHSGAPSRFSASGSGTDFTLTITNIQTEDFATYLCQQSFSVPAFGGGTKVEIK
B17 showed an FACS M2-HK MFI in [1] of 1670 MFI.

B18: TCN-549 (5092_P04) (antibody, V domains shown)
VH: QVQLVQSGAEVKKPGASVKVSCKASGYTFTGYYMHWVRQAPGQGLEWMGWINPNSGDTNYAQKFQGRVTMTRDTSITTAYMELSSLRSDDTAVYYCARDSPYSSSWSFFDYWGQGPLVTVSS
VL: not shown
With B18, the Trimeric HA Binding RLU was found to be 284 RLU in [2]; 338 RLU in experiment [3]; 30900 RLU in experiment [8]; 387 RLU in experiment [4]; 498 RLU in experiment [5]; 9450 RLU in experiment [6]. The Trimeric HA Binding RLU in [9] turned out to be 996 RLU; in experiment [7] it was 1600 RLU.
